These results are taken from patent publication US20090298083.

In one series the target is FLAG-Pax3 (UniProt P23760). Briefly: cell_activity. To be noted: CAT assay, proliferating mouse primary myoblasts; activity completely lost after 12 h differentiation.
The next series concerns FLAG-Pax3-FOXO1 fusion. Briefly: cell_activity. Conditions: CAT assay, proliferating mouse primary myoblasts; no significant change during differentiation.
In series [1] the target is GST-Pax3 phosphorylated at Ser205 by CKII (UniProt P23760). Briefly: EMSA. Conditions: Pax3 phosphorylated at Ser205 by CKII; reference for maximal binding; nearly 10-fold more binding than unphosphorylated.
Chain of GST-Pax3 phosphorylated at Ser205 by CKII (P23760 other isoform, or with tags, fused parts or gaps): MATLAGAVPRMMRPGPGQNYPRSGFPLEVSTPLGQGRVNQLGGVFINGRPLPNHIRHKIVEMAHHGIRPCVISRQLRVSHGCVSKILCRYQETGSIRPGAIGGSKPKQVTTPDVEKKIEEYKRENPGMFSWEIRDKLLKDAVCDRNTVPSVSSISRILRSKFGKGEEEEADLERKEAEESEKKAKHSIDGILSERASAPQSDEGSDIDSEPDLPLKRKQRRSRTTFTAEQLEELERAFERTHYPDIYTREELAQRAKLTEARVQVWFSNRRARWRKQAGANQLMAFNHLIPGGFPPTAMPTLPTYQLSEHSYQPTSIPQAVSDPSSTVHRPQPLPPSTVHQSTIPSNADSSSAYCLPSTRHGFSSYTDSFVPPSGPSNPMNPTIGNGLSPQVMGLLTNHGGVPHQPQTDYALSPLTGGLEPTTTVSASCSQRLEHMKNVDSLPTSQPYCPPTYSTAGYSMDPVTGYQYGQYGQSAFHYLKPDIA
The target in series [2] is GST-Pax3 non-phosphorylated (UniProt P23760). Briefly: EMSA. To be noted: unphosphorylated; value inferred from nearly 10-fold increase on CKII phosphorylation.
Chain of GST-Pax3 non-phosphorylated (P23760 other isoform, or with tags, fused parts or gaps): as above

Chain of FLAG-Pax3 (P23760 other isoform, or with tags, fused parts or gaps): as above

For “(PRS-9)TK-CAT reporter, six tandem repeats of Pax3 paired and homeodomain recognition sequence”, the activity (fold over background) in the series with FLAG-Pax3 stood at 2; in the series on FLAG-Pax3-FOXO1 fusion it was 4.

As to “oligonucleotide with paired- and homeodomain recognition sequences”, the binding signal in series [1] came out at 100%; in series [2] it was 10%.
